Some targets named below: HLA-A*02:02; HLA-A*02:03; HLA-A*02:06; HLA-A*03:01; HLA-A*11:01; HLA-A*31:01; HLA-A*33:01; HLA-A*68:01.
Common to all, as to test: IEDB peptide-MHC binding, purified MHC/competitive/radioactivity; filed as Kd, often an IC50 or EC50 that approximates it; ≥ and ≤ were set here for values at or beyond the usual limits of such assays
Where [1] appears, read: source organism: Vaccinia virus WR.
Where [2] appears, read: source organism: SARS coronavirus Tor2.
Where [3] appears, read: source organism: Dengue virus 1 Brazil/97-11/1997.
The mark [4] stands for this setting: source organism: HIV-1 M:B_ARV2/SF2.

As for TLVPVLEKKV, the Kd with HLA-A*02:02 (setting [1]) was found to be 112 nM; in the experiment with HLA-A*02:03 (setting [1]) it was 100 nM; with HLA-A*02:06 (setting [1]) it was 498 nM.
For ILLILSCIFA, the Kd with HLA-A*02:02 (setting [1]) amounted to 448 nM; with HLA-A*02:03 (setting [1]), 307 nM; in the experiment with HLA-A*02:06 (setting [1]), 492 nM.
For the sequence SILSLETVKM, the Kd in the experiment with HLA-A*02:02 (setting [1]) was determined as 203 nM; with HLA-A*02:03 (setting [1]), 455 nM; with HLA-A*02:06 (setting [1]), 806 nM.
On the same counts, the results for YLGHSAGFTA are 16.4 nM, 86.1 nM and 144 nM.
On to LVIGVAFLAV, for which the Kd with HLA-A*02:02 (setting [2]) was 2710 nM; in the experiment with HLA-A*02:03 (setting [2]), 22.4 nM; with HLA-A*02:06 (setting [2]), 2.6 nM.
Regarding YQVKTETTI, the Kd in the experiment with HLA-A*02:06 (source organism: Dengue virus 4 Philippines/H241/1956) was 26.3 nM.
For LLEMKYALI, the results for the Kd with HLA-A*02:02 (setting [1]), with HLA-A*02:03 (setting [1]) and in the experiment with HLA-A*02:06 (setting [1]) were 354 nM, 135 nM and 14900 nM, respectively.
With IMFMLIFNV, the Kd with HLA-A*02:02 (setting [1]) came out at 0.146 nM; with HLA-A*02:03 (setting [1]), 10.2 nM; in the experiment with HLA-A*02:06 (setting [1]) it was 13.1 nM.
Regarding LMAMDLGEL, the Kd with HLA-A*02:03 (source organism: Dengue virus 2 Peru/IQT2913/1996) amounted to 6.78 nM.
ILFILFFAYV: the Kd with HLA-A*02:02 (setting [1]) came to 132 nM; with HLA-A*02:03 (setting [1]), 366 nM; with HLA-A*02:06 (setting [1]) it was 1210 nM.
On to ETMYLTMKAI, for which the Kd with HLA-A*02:02 (setting [1]) was found to be 1320 nM; with HLA-A*02:03 (setting [1]), 25.2 nM; in the experiment with HLA-A*02:06 (setting [1]) it was 3580 nM.
On the same counts, the results for AAAATCALV are 14.6 nM, 9.05 nM and 12.5 nM.
The corresponding values for YVEHDPRLVA are 18600 nM, 16200 nM and 11900 nM.
For the sequence IAACAMLLV, the Kd in the experiment with HLA-A*02:02 (setting [2]) came out at 320 nM; with HLA-A*02:03 (setting [2]), 387 nM; with HLA-A*02:06 (setting [2]), 131 nM.
Consider TLATGPLTTL, for which the Kd with HLA-A*02:03 (setting [3]) was found to be 9.26 nM.
On to MMNITRLEVI, for which the Kd with HLA-A*02:02 (setting [1]) was determined as 85.4 nM; with HLA-A*02:03 (setting [1]), 26.1 nM; with HLA-A*02:06 (setting [1]) it was 134 nM.
On to SITPNNLNKI, for which the Kd was 14900 nM with HLA-A*02:02 (setting [1]), not below 70400 nM with HLA-A*02:03 (setting [1]) and not below 69800 nM in the experiment with HLA-A*02:06 (setting [1]).
Regarding SLVSAGSGKV, in the experiment with HLA-A*02:03 (source organism: Dengue virus 3 Martinique/1243/1999), the Kd worked out at 19.4 nM.
In the case of YIEDELRRA, the Kd with HLA-A*02:02 (setting [1]) came to 1760 nM; with HLA-A*02:03 (setting [1]) it was 259 nM; in the experiment with HLA-A*02:06 (setting [1]), 1230 nM.
The corresponding values for KINPLLDEPL are 53.4 nM, 304 nM and 18.6 nM.
For the sequence YVMCTGSFKL, the Kd in the experiment with HLA-A*02:06 (setting [3]) worked out at 18.8 nM.
Take ALALEQYGI: the Kd with HLA-A*02:02 (setting [1]) came to 0.695 nM; with HLA-A*02:03 (setting [1]), 40 nM; in the experiment with HLA-A*02:06 (setting [1]), 548 nM.
On the same counts, the results for LTHGADPNA are 19400 nM, 10500 nM and not below 29400 nM.
Consider LTFGWCFKLV, for which the values for the Kd in the experiment with HLA-A*02:02 (setting [4]), with HLA-A*02:03 (setting [4]) and with HLA-A*02:06 (setting [4]) were 910 nM, 167 nM and 20.1 nM, respectively.
KVIKLVKSLV: the Kd in the experiment with HLA-A*02:02 (setting [1]) is 14300 nM; with HLA-A*02:03 (setting [1]) it was 13400 nM; in the experiment with HLA-A*02:06 (setting [1]) it was 2140 nM.
On to DMLKLFTHDI, for which the Kd was found to be 196 nM with HLA-A*02:02 (setting [1]), 16.1 nM with HLA-A*02:03 (setting [1]) and 2970 nM in the experiment with HLA-A*02:06 (setting [1]).
With GVRFFFYTSK, the Kd with HLA-A*03:01 (setting [2]) came out at 88.9 nM; in the experiment with HLA-A*11:01 (setting [2]) it was 44.6 nM; with HLA-A*31:01 (setting [2]) it was 488 nM; with HLA-A*33:01 (setting [2]), 11000 nM; in the experiment with HLA-A*68:01 (setting [2]), 121 nM.
With YAVLSEYETM, the figures for the Kd in the experiment with HLA-A*02:02 (setting [1]), with HLA-A*02:03 (setting [1]) and with HLA-A*02:06 (setting [1]) were 157 nM, 9630 nM and 1210 nM, respectively.
As to DISSFYWSL, the Kd with HLA-A*02:02 (setting [1]) was found to be 391 nM; in the experiment with HLA-A*02:03 (setting [1]), 6870 nM; with HLA-A*02:06 (setting [1]) it was 3970 nM.
Consider GTSAAAYFV, for which the Kd came to 35.2 nM with HLA-A*02:02 (setting [2]), 202 nM with HLA-A*02:03 (setting [2]) and 90.5 nM with HLA-A*02:06 (setting [2]).
On to KASTISWMMK, for which the Kd in the experiment with HLA-A*03:01 (setting [1]) is 45 nM; with HLA-A*11:01 (setting [1]), 5.49 nM; with HLA-A*31:01 (setting [1]), 88 nM; with HLA-A*33:01 (setting [1]), not below 50400 nM; with HLA-A*68:01 (setting [1]), 134 nM.
The corresponding values for SLIKTILASY are 97.5 nM, 1050 nM, 4570 nM, not below 43300 nM and 1730 nM.
Regarding QTMLFTMLR, the Kd in the experiment with HLA-A*03:01 (setting [2]) stood at 43.5 nM; in the experiment with HLA-A*11:01 (setting [2]), 1.81 nM; with HLA-A*31:01 (setting [2]), 0.162 nM; in the experiment with HLA-A*33:01 (setting [2]), 1.24 nM; in the experiment with HLA-A*68:01 (setting [2]) it was 2.61 nM.
As for FAVGLLFRRL, in the experiment with HLA-A*02:06 (setting [3]), the Kd stood at 20.4 nM.
With LQGPPGTGK, the Kd is 459 nM in the experiment with HLA-A*03:01 (setting [2]); 40.1 nM in the experiment with HLA-A*11:01 (setting [2]); 1260 nM with HLA-A*31:01 (setting [2]); not below 77700 nM in the experiment with HLA-A*33:01 (setting [2]); 10900 nM with HLA-A*68:01 (setting [2]).

One may read the Kd as the concentration at which binding is half-saturated.

Values taken from the Immune Epitope Database (IEDB).
